Four molecules from patent publication US20250326851A1 (Bayer, published 2025) can be followed below.

One assay deals with T1, Mouse FcγRIV/CD16-2 (mouse, UniProt A0A0B4J1G0 21-203).
T1 construct: also called mFcγR variant
T1 sequence: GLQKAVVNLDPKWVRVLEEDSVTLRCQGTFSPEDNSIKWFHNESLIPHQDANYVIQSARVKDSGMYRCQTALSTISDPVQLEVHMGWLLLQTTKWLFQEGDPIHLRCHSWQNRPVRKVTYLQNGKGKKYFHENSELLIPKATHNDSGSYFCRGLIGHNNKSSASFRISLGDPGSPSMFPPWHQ
The assay can be described thus: SPR. As for the experimental part: (§1) The binding of murine surrogate antibodies to mouse Fc receptor variants (mFcγR and mFcRn) was analyzed by SPR.

The target in another assay is T2, Mouse FcRn (mouse, UniProt Q61559 22-297; P01887 21-119).
T2 construct: also called mFcRn; murine FcRn
T2 sequence (looked up) 1: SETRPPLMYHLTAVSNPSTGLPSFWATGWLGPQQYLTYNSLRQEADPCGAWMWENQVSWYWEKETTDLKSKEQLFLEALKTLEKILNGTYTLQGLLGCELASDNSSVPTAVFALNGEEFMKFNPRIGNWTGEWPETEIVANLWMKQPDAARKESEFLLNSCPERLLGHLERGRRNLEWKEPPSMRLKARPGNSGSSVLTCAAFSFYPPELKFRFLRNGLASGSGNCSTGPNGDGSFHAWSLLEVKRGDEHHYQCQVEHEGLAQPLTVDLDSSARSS
T2 sequence (looked up) 2: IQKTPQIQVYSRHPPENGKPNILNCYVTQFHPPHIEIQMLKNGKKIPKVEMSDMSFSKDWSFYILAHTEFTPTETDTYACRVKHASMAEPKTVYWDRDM
The assay can be described thus: SPR. The protocol: as §1

The target of assay [1] is T3, mouse CCR8 on HEK293 cells (mouse, UniProt P56484 1-353).
T3 sequence (looked up): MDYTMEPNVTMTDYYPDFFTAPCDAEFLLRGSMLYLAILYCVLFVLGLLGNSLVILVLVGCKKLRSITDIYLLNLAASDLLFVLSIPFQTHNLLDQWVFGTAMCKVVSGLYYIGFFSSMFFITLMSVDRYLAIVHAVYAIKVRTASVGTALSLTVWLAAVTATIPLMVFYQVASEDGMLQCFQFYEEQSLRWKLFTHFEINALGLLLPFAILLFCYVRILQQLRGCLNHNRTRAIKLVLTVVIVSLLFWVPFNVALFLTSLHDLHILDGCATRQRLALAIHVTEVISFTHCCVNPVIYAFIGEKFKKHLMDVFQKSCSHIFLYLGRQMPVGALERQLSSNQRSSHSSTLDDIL
Description: cell-based or functional assay.

Assay [2] concerns the target T3, mouse CCR8 on HEK293 cells. Description: cell-based or functional assay. The source holds these as a separate data set.
Assay [3] deals with T4, Mouse FcγRIIA/CD32a (R167) (mouse).
T4 construct: The printed name is that of a human receptor allotype; kept as printed; also called mFcγR variant
Description: SPR; approximation, saturation not reached. As for the experimental part:
as §1

Another assay has as its target T5, Mouse FcγRIIIB/CD16b (mouse).
T5 construct: The printed name is that of a human receptor; kept as printed; also called mFcγR variant
Description: SPR; approximation, saturation not reached. The protocol: as §1

Assay [4] deals with T3, mouse CCR8 on HEK293 cells. Description: flow cytometry on murine CCR8-transfected HEK293 cells. The protocol: (§2) The binding properties of murine surrogate antibodies were assessed using flow cytometry on HEK293 cells ectopically expressing murine CCR8.
Assay [5] addresses T3, mouse CCR8 on HEK293 cells. The assay can be described thus: flow cytometry, mouse CCR8-expressing HEK293 cells; reference TPP-15285. As for the experimental part:
as §2

Assay [6] deals with T6, human CCR8 (human, UniProt P51685 1-355). Description: cell-based or functional assay.
T6 sequence (P51685 whole entry): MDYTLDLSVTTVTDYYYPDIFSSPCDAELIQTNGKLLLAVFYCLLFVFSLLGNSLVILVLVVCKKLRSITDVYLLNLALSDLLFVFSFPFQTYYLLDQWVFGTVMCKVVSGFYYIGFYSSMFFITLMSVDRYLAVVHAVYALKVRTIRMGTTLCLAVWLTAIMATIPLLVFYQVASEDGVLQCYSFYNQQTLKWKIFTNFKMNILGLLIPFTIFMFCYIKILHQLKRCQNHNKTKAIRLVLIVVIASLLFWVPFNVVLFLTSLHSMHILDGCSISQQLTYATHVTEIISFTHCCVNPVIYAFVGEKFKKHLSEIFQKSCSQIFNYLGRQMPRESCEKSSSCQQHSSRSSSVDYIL
Assay [7] concerns the target T6, human CCR8. Description: cell-based or functional assay. The source holds these as a separate data set.
Assay [8] has as its target T6, human CCR8. Description: flow cytometry using HEK293 cells, 0.0046 to 10 µg/mL (selectivity study).

Values joined by “and” are separate entries in the source; they are usually repeats but may differ in a detail not shown here. Equal entries are not always repeated.

B1: TPP-29338 (short half-life) (antibody, mouse IgG2a)
heavy: EVQLLESGGGLVQPGGSLRLSCAASGFTFSDYGVHWVRQAPGKGLEWVSGVSWNGSRTHYADSVKGRFTISRDNSKNTLYLQMNSLRAEDTAVYYCVTRGAWGQGTLVTVSSAKTTAPSVYPLAPVCGDTTGSSVTLGCLVKGYFPEPVTLTWNSGSLSSGVHTFPAVLQSDLYTLSSSVTVTSSTWPSQSITCNVAHPASSTKVDKKIEPRGPTIKPCPPCKCPAPNLLGGPSVFIFPPKIKDVLMISLSPIVTCVVVDVSEDDPDVQISWFVNNVEVHTAQTQTHREDYNSTLRVVSALPIQANDWMSGKEFKCKVNNKDLPAPIERTISKPKGSVRAPQVYVLPPPEEEMTKKQVTLTCMVTDFMPEDIYVEWTNNGKTELNYKNTEPVLDSDGSYFMYSKLRVEKKNWVERNSYSCSVVHEGLAQHHTTKSFSRTPGK
light: QSVLTQPPSASGTPGQRVTISCSGSSFNIGSHFVYWYQQLPGTAPKLLIYKNNQRPSGVPDRFSGSKSGTSASLAISGLRSEDEADYYCAAWDDSLNGPVFGGGTKLTVLGQPKSSPSVTLFPPSSEELETNKATLVCTITDFYPGVVTVDWKVDGTPVTQGMETTQPSKQSNNKYMASSYLTLTARAWERHSSYSCQVTHEGHTVEKSLSRADCS
In turn, B1 showed a Kd with Mouse FcγRIV/CD16-2 of 1400 nM. For the same molecule, the binding result with Mouse FcRn was “no binding (tested: 15.6 to 2,000 nM (FcRn assay))”. Also, in assay [1], the “ADCC EC50 (ng/mL) at 20 hours; mouse CCR8-expressing HEK293 cells, mouse NK cells” value amounted to 1.33 ng/mL and the “ADCC EC50 (pM) at 20 hours; mouse CCR8-expressing HEK293 cells, mouse NK cells” value amounted to 9.28 pM. In assay [2], the “cumulative ADCP EC50 (ng/mL), 4 hours; mouse CCR8-expressing HEK293 cells, mouse M2 macrophages” value was 74.3 ng/mL; the “cumulative ADCP EC50 (ng/mL), 12 hours; mouse CCR8-expressing HEK293 cells, mouse M2 macrophages” value was 28.3 ng/mL; the “cumulative ADCP EC50 (pM), 4 hours; mouse CCR8-expressing HEK293 cells, mouse M2 macrophages” value came out at 518 pM; the “cumulative ADCP EC50 (pM), 12 hours; mouse CCR8-expressing HEK293 cells, mouse M2 macrophages” value was 197 pM. In assay [3], this molecule registered a Kd of about 12 µM. The molecule further had a Kd with Mouse FcγRIIIB/CD16b of about 19 µM. For the same molecule, in assay [4], the EC50 was 0.495 nM and 0.071 µg/mL. Besides, the “fold higher affinity compared to TPP-15825” value in assay [5] came to 10 fold.

B2: TPP-23411 (afucosylated) (antibody, human IgG1, lambda, V domains shown)
VH: EVQLLESGGGLVQPGGSLRLSCAASGFTFSSYGMHWVRQAPGKGLEWVSAINWNGGSTGYADSVKGRFTISRDNSKNTLYLQMNSLRAEDTAVYYCARGHHSGYDGRFFDYWGQGTLVTVSS
VL: QSVLTQPPSVSGAPGQRVTISCTGSSSNIGAGYNVHWYQQLPGTAPKLLIYTNNRRPSGVPDRFSGSKSGTSASLAISGLRSEDEADYYCAAWDASLSGWVFGGGTKLTVLG
modifications: afucosylated Fc glycan
notes: Fully human IgG1 lambda; In the ADA bridging assay it was biotinylated or SULFO-tagged; also called 21360-hIgG1wtlambda; anti-human CCR8 antibody hIgG1 isotype (afucosylated)
Turning to B2, in the assay with human CCR8 [6], the “ADCC EC50; HEK-hCCR8 target cells, NK92V effector cells” value came out at 12.8 pM; the “ADCC EC50; Tregs, donor 1100 (85.0% CCR8 expression), NK92V effector cells” value turned out to be 28.1 pM; the “ADCC EC50; Tregs, donor 1163 (31.4% CCR8 expression), NK92V effector cells” value stood at 55.9 pM. Besides, in the assay with human CCR8 [7], the “ADCP EC50; Tregs, donor 1100 (63% CCR8 expression), human M2c macrophages” value is 143 pM and the “ADCP EC50; Tregs, donor 1163 (40% CCR8 expression), human M2c macrophages” value is 440 pM. In addition, the EC50 in the assay with human CCR8 [8] is 0.129 µg/mL.

B3: TPP-23411 (wild-type) (antibody, human IgG1, lambda, V domains shown)
VH: B2 VH
VL: B2 VL
modifications: conventional (fucosylated) glycosylation
Take B3: the “ADCC EC50; HEK-hCCR8 target cells, NK92V effector cells” value in the assay with human CCR8 [6] came out at 70.2 pM. In addition, in the assay with human CCR8 [7], the “ADCP EC50; Tregs, donor 1100 (63% CCR8 expression), human M2c macrophages” value was 155 pM and the “ADCP EC50; Tregs, donor 1163 (40% CCR8 expression), human M2c macrophages” value is 148 pM.

B4: TPP-15285 (normal half-life) (antibody, V domains shown)
VH: EVQLLESGGGLVQPGGSLRLSCAASGFTFSDYGVHWVRQAPGKGLEWVSGVSWNGSRTHYADSVKGRFTISRDNSKNTLYLQMNSLRAEDTAVYYCVTRGAWGQGTLVTVSS
VL: not shown
notes: Anti-mouse CCR8 antibody, human VH/VL chimerized to mIgG2a (lambda)
For B4, in [1], the “ADCC EC50 (ng/mL) at 20 hours; mouse CCR8-expressing HEK293 cells, mouse NK cells” value came out at 32.6 ng/mL and the “ADCC EC50 (pM) at 20 hours; mouse CCR8-expressing HEK293 cells, mouse NK cells” value came to 227 pM. Further, in assay [2], the “cumulative ADCP EC50 (ng/mL), 4 hours; mouse CCR8-expressing HEK293 cells, mouse M2 macrophages” value was 54.5 ng/mL; the “cumulative ADCP EC50 (ng/mL), 12 hours; mouse CCR8-expressing HEK293 cells, mouse M2 macrophages” value was determined as 22.7 ng/mL; the “cumulative ADCP EC50 (pM), 4 hours; mouse CCR8-expressing HEK293 cells, mouse M2 macrophages” value was 380 pM; the “cumulative ADCP EC50 (pM), 12 hours; mouse CCR8-expressing HEK293 cells, mouse M2 macrophages” value is 158 pM. Moreover, in assay [4], the EC50 is 12.5 nM and 1.8 µg/mL.
